The series in a line: soluble on expression in E. coli; label from the status in PepcDB or PDB records.
“LTKRVQEAQAMTEGERRKLSSVLAYMTDGVIATDRRGKVILINTPAEKMLRVKHESANGRSIIDVLDIGDTYQFEDLMEVDGSLTMDRSTLDKPYVLRANFSVIQRETGFNNGVIAVLHDIT”: the “soluble on expression in E. coli” value is “not soluble”.

In the case of “LTLGNTTSSVILTNYMDTQYYGEIGIGTPPQTFKVVFDTGSSNVWVPSSKCSRLYTACVYHKLFDASDSSSYKHNGTELTLRYSTGTVSGFLSQDIITVGGITVTQMFGEVTEMPALPFMLAEFDGVVGMGFIEQAIGRVTPIFDNIISQGVLKEDVFSFYYNRDSENSQSLGGQIVLGGSDPQHYEGNFHYINLIKTGVWQIQMKGVSVGSSTLLCEDGCLALVDTGASYISGSTSSIEKLMEALGAKKRLFDYVVKCNEGPTLPDISFHLGGKEYTLTSADYVFQESYSSKKLCTLAIHAMDIPPPTGPTWALGATFIRKFYTEFDRRNNRIGFALAR”, the “soluble on expression in E. coli” value is “soluble”.

For the sequence “LTVLELESQIDVLSRIQFVSRFGSNLVHIEGVKGSGKSWLAQRYLEKWCDDADQVLLMCHPNQSIQQQRGIILKQVVRDPLFNESDSVVDSVGRMLAGEKCNLVLAIDDAHLLSSELLSELWLLVQKAQSAPNWQINILLFAEKGKLTQTLSQMSYGQDNKPVDIDINP”, the “soluble on expression in E. coli” value was “soluble”.

Consider “LWALGNDSVTAKSLTISNFTLTERKTRYELCFLLDAKNSNTVNEPLSELKNCYGKDVSNVFRTITADNGSEFSRLSEMLQGLGIEAYFTHPYSSWERGTNERHNGLIRRFIPKGKAIKDFSEETIKRIQQWLNSLPRRILGYKTPEECFNEEIHNLVNKNISAIA”, for which the “soluble on expression in E. coli” value is listed as “not soluble”.

As to “LYAHAVESLRHEITAVLLIAKPEDEVLLRLESPGGVVHGYGLAASQLRRLRERNIPLTVAVDKVAASGGYMMACVADKIVSAPFAVIGSVGVVAEVPNIHRLLKKHDIDVDVMTAGEFKRTVTFMGENTEKGKQKFRQELEETHQLFKQFVSENRPGLDIEKIATGEHWFGRQALALNLIDEISTSDD”, the “soluble on expression in E. coli” value is given as “not soluble”.

As for “MAAAPPSADPLDKALIVDVDQWIEQLYECKPLSENQVKTLCEKAKEILEKEPNVQEVRCPVTVCGDVHGQFHDLMELFKMGGKSPDTNYLFMGDYVDRGYYSVETVSLLVCLKIRYKDRVTLLRGNHESRQITQVYGFYDECLRKYGNSNVWKYFTDLFDCFPLTALVDGQIFCLHGGLSPSIDTLDHIRALDRIQEVPHEGPMCDLLWSDPDDRGGWGISPRGAGYTFGQDISETFNHSNGLTLISRAHQLVMEGYNWSHDRNVVTVFSAPNYCYRCGNQAAMVELDDDLKYSFLQFDPAPRRGEPHVTRRTPDYFL”, the “soluble on expression in E. coli” value was “not soluble”.

As for “MAAAVRSVKGLVAVITGGASGLGLSTAKRLVGQGATAVLLDVPNSEGETEAKKLGGNCIFAPANVTSEKEVQAALTLAKEKFGRIDVAVNCAGIAVAIKTYHEKKNQVHTLEDFQRVINVNLIGTFNVIRLVAGVMGQNEPDQGGQRGVIINTASVAAFEGQVGQAAYSASKGGIVGMTLPIARDLAPIGIRVVTIAPGLFATPLLTTLPDTVRNFLASQVPFPSRLGDPAEYAHLVQMVIENPFLNGEVIRLDGAIRMQP”, the “soluble on expression in E. coli” value was “soluble”.

Take “MAAGKRDYYEVLGVSRSATAQDIKRAFRKLAMQYHPDRHKGEGETVQKQNEEKFKEVNEAYEVLSDTEKRGMYDRFGHEGLNASGFHETGFNPFDIFNSVFGEGFSFDMDGGSPFDFIFSRGKKSRQNRVVLPYDLEIAVGVDISFFEMTNGCTRTIEYTKRVTCSACDGFGAEGGETGMVSCNSCEGNGFILKNQRSIFGTVQSQMLCQSCGGQGKQAKHKCKTCKGSKYKKVPTTKEIQIPAGIYHGDALVDDHGGNEFGGHVGKLVVHVGVLPSKIFKRVDHNVVANVLVDPMIAITGGKIELPTLEGIKEFNLRAGTKSGEQIVIPGGGIKFTKNFRKKAGDLIIIISYARPSEYSAPELRKLKEFIKPNQEVKQYLEHHHHHH”: the “soluble on expression in E. coli” value was “soluble”.

Regarding “MAAHFDLTDLQLLVHIGDWHSLTRGAEKSHLSLPAASTRVKNLEEHFGTQLLYRTSQGVTLTPSGEAMLRHARTVMQQVEQMRGDMQEFARGVKGHVRVLANTTAMTEFMPAVLARYLAAHPDVNVELRERLSYLVVRAVADGSADIGVVAGCAPDQKLQFIPYRKDRLVVVTPAGHRLAAEESVAFADTLADDYVGLSEWSAIHPFLVQAAASLGRTFKFRVEVGNFEAVCRMIESGVGIGVIPESAALRYARNLDIALVGLTDEWAVRELQICVKNLDSLPVFARELVETLVADGDAAG”, the “soluble on expression in E. coli” value was “soluble”.

“MAAIIRTLFKSKKSKKGDEENNEDLAREVSNRRSFRAPSTSSSKSQRRAVARFADDGALPATAAYHTTSAPKLRKGPQSCPGGYRDESDVSYESDKYSQKSNSHRRRDVLHQSMRQNYTIDEGRKPSSRRHHSSKSDFRRRGESSEYGSGDPSPVGQYSSRHSHYEDRIEESENDDFSEKAQFAVIERAQQHYMQKYKESEQKRREEKRKLKDMEKECNDAKNAMFHYMNQLDKVKKERDCYRKELSRCKKQLEAFQNSGYDAFHHLRQPQISNPQQYPPPLSMGSYPYMSQSMNASHHMSSNFMNSAPPSSNTPMTMTSGAGESLINPSDVSFLQNSFLQPTSQGLTGMTPPPGGFKVPTNYGDDDRDEVKDYRSELLIETSRSTKEVDSISPSSSADSQVTLLDHSTIDKENRKPPSRPFSMMSI”: the “soluble on expression in E. coli” value is reported as “not soluble”.

In the case of “MAAKFHLKKAKDGQFHFNLHAANGEIILTSELYKAKDSALGGIESVRKNSQRDGAFEVKPANNGKFHFVLKATNGQVVGQSQLYASQANAEAGVQSVKRATPEAGLSDES”, the “soluble on expression in E. coli” value is “not soluble”.

With “MAAKIPGVIALFDVDGTLTAPRKEATPELLDFIRELRKVVTIGVVGGSDLSKISEQLGKTVTNDYDYCFSENGLVAHKDGKSIGIQSLKLHLGDDKLKELINFTLHYIADLDIPIKRGTFIEFRNGMLNVSPIGRNCSQEERDEFERYDKVQNIRPKMVAELRERFAHLNLTFSIGGQISFDVFPKGWDKTYCLQYLEDFSEIHFFGDKTYEGGNDYEIYESPKTIGHSVTSPDDTVAKCKALFMS”, the “soluble on expression in E. coli” value is on record as “soluble”.

Regarding “MAALTASCIDLNIQGNGAYSVLKQLATIALQNGFITDSHQFLQTLLLREKMHSTGFGSGVAVPHGKSACVKQPFVLFARKAQAIDWKASDGEDVNCWICLGVPQSGEEDQVKIIGTLCRKIIHQEFIHQLQQGDTDQVLALLNQTLSS”, the “soluble on expression in E. coli” value was “not soluble”.

Regarding “MAASIELFEQNGFSETSIQDIVDALGVTKGTFYYYFTSKEELLMDIHLRYIERLLDEEERIISDKRRSVQEKLYDIIFMLIHNVERQGREARIFFREMKHLNEEHLQKVKEKRDLFRYRLQSLIEEGMKSGELRCDLSPSIATLTVLGAANWSYQWFRPDGELTDAEVAKQMVEILLDGMSAPSVSKAE”, the “soluble on expression in E. coli” value was “not soluble”.

For “MAAYKLVLIRHGESAWNLENRFSGWYDADLSPAGHEEAKRGGQALRDAGYEFDICFTSVQKRAIRTLWTVLDAIDQMWLPVVRTWRLNERHYGGLTGLNKAETAAKHGEAQVKIWRRSYDVPPPPMEPDHPFYSNISKDRRYADLTEDQLPSCESLKDTIARALPFWNEEIVPQIKEGKRVLIAAHGNSLRGIVKHLEGLSEEAIMELNLPTGIPIVYELDKNLKPIKPMQFLGDEETVRKAMEAVAAQGKAKK”, the “soluble on expression in E. coli” value is on record as “soluble”.

Turning to “MAAYYRWKSFEENEDRPEKPRRYGVTEMRGPHYSVLSQNLLQEIFESMGQFVDGLKFSGGSNSLIPKSFIKQAIEMAHEHGVYVSTGDWAEHMLRSGPSAFKDYVEECKQLGFDTIELNANLLEVPEETLLRYVRLIKNGGLRAKPMFAVKFNKSDIPGRNRAFGSYVVPEPRSSEFVEDIDLLIRKAERCLEAGADTIMIDADDVCKYADSLRADIIAKVIGRLGIEKTMFEASDAKLVEWFIKRYGPNVNLYVDHSQIMDLECLRGRHLGKDHQSVLSSSYFLF”, the “soluble on expression in E. coli” value is listed as “soluble”.

As to “MACCYNSPRRLEKSFVLDGVAVSTMAQAYSIMRPKLWSAIPPYNPQLDHHSRRYFRSRVVPPILRKTDQDHGGTGRDGWIVDYFHIFGQGQRYLNRRNWAGAGHSLQQVSGHDYYNSNPKAITTGLNGRFGYRRNTPALRQHTSVFGEVTPFPISEDIASQGLTCVFKTDV”, the “soluble on expression in E. coli” value is “not soluble”.

With “MACTGYEELRKWFLDKMVNACRAIRDQKEDQSNSAAKKAMLYIQENYNKDISLDDVSGIVNISPYYFSKIFKEETGENFIEYVTKVRIEKAKEFLAQPDISIKEAGIRSGYTDPNYFSRIFKKQTDMTPSEYKTRYGK”, the “soluble on expression in E. coli” value was “not soluble”.

In the case of “MADAEVIILPKKHKKKKERKSLPEEDVAEIQHAEEFLIKPESKVAKLDTSQWPLLLKNFDKLNVRTTHYTPLACGSNPLKREIGDYIRTGFINLDKPSNPSSHEVVAWIRRILRVEKTGHSGTLDPKVTGCLIVCIERATRLVKSQQSAGKEYVGIVRLHNAIEGGTQLSRALETLTGALFQRPPLIAAVKRQLRVRTIYESKMIEYDPERRLGIFWVSCEAGTYIRTLCVHLGLLLGVGGQMQELRRVRSGVMSEKDHMVTMHDVLDAQWLYDNHKDESYLRRVVYPLEKLLTSHKRLVMKDSAVNAICYGAKIMLPGVLRYEDGIEVNQEIVVITTKGEAICMAIALMTTAVISTCDHGIVAKIKRVIMERDTYPRKWGLGPKASQKKLMIKQGLLDKHGKPTDSTPATWKQEYVDYSESAKKEVVAEVVKAPQVVAEAAKTAKRKRESESESDETPPAAPQLIKKEKKKSKKDKKAKAGLESGAEPGDGDSDTTKKKKKKKKAKEVELVSE”, the “soluble on expression in E. coli” value is on record as “soluble”.

With “MADEAQAPPAEGAPPAEGEAPPPAEGAEGAVEGGEAAPPAEPAEPIKHSYTLFYFNVKALAEPLRYLFAYGNQEYEDVRVTRDEWPALKPTMPMGQMPVLEVDGKRVHQSISMARFLAKTVGLCGATPWEDLQIDIVVDTINDFRLKIAVVSYEPEDEIKEKKLVTLNAEVIPFYLEKLEQTVKDNDGHLALGKLTWADVYFAGITDYMNYMVKRDLLEPYPALRGVVDAVNALEPIKAWIEKRPVTEV”, the “soluble on expression in E. coli” value is given as “soluble”.

“MADETTMRAGRGPGRACGRVSGVRILVVEDEPKMTALLARALTEEGHTVDTVADGRHAVAAVDGGDYDAVVLDVMLPGIDGFEVCARLRRQRVWTPVLMLTARGAVTDRIAGLDGGADDYLTKPFNLDELFARLRALSRRGPIPRPPTLEAGDLRLDPSEHRVWRADTEIRLSHKEFTLLEALIRRPGIVHTRAQLLERCWDAAYEARSNIVDVYIRYLRDKIDRPFGVTSLETIRGAGYRLRKDGGRHALPR”: the “soluble on expression in E. coli” value is recorded as “not soluble”.

Take “MADEVIEYKFTCSSFYYGRETSQVLNTSITKGLKCVWKTRYASIAEQAFFSWEFDWNELKRLGIDSLAGNITVKSASMSPLNVQIDLRKPTEIVERAFYLRDDDYAYNSYINKTTFEYSFVPYCAQVDESLYEKMFLPSDENDAILVIGNKKLHVCKAFLSYHSSFFRAIFSSAFKEGQMSEIPIKDVTYKDFALMLSTIYPDAVFPNDRTVEKLLEMGDRFIIQSVINHVEYHLLHNTSIGNEKLMWMADRYGMPKLLVKSIQQMNSIEKAKALKSSPDYAKLSKEAKEKILDRLMALI”: the “soluble on expression in E. coli” value is reported as “not soluble”.

For “MADIQGEDLESLYGYAKQLFDGGEIAAARNVYQLLSTLDHWNFDYLLALGLCHQRLGAHNEAVVCFGRAGLIKVDDPRAAFYAGISYRLDGNAEYASKAFKAAINWCGEQIDYQAIKASAVDMLALQQEEVPLEHHHHHH”, the “soluble on expression in E. coli” value is on record as “soluble”.

These data come from the DeepSol protein solubility set.
